Results on 1 molecule are retold here after patent publication US20260055369A1, “METHOD FOR GENERATING CELLS OF THE T CELL LINEAGE WITH ENGINEERING BROADLY REACTIVE HUMAN NOTCH LIGAND” (H. Lee Moffitt Cancer Center and Research Institute, Inc., priority 2022, published 2026).

One experiment concerns the target T1, Notch2 (EGF6-13) (Homo sapiens, UniProt Q04721).
T1 construct: hNotch2 (EGF6-13, residues 221-530); gp67 signal peptide (N); made in house; host or cells: HiFive Trichoplusia ni insect cells (baculovirus)
T1 sequence (Q04721 221-530): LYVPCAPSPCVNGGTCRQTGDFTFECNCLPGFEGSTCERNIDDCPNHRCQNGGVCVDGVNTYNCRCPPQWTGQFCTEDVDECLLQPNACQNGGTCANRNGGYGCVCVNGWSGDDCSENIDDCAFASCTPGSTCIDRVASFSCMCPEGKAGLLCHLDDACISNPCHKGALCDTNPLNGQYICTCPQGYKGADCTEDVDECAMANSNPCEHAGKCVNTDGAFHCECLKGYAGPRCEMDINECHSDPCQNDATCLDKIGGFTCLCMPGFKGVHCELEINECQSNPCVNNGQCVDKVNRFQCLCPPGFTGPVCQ
The experiment is described as follows: SPR determination of equilibrium dissociation constants. In kind it is binding. As for the experimental part: (§1) Equilibrium dissociation constants were determined by surface plasmon resonance using a Biacore T200 instrument (GE Healthcare). Approximately 100 resonance units (RU) of biotinylated Notch extracellular fragments (Notch1 (EGF6-13), Notch2 (EGF6-13), Notch3 (EGF5-12), Notch4 (7-12), and mouse Notch1 (EGF6-13)) were immobilized on individual flow cells at 5 μl/min using a streptavidin-coated sensor chip (Series S Sensor chip SA, GE Healthcare). Three-fold serial dilutions of recombinant DLL4 proteins (N-EGF5) starting at 50 μM (WT DLL4), 18 μM (DLL4.v2), and 6 μM (DLL4.v1 and Delta^MAX) were flowed over the chip at 25° C. in SPR buffer (20 mM HEPES pH 7.4, 150 mM NaCl, 1 mM calcium chloride, 0.1% BSA supplemented with 0.005% surfactant P20). Association (“on-rate”) and dissociation (“off-rate”) phases were performed at 10 μl/min for 120 seconds and 300 seconds, respectively. The sensor chip was regenerated after each injection with 30-second washes of 2.25M Magnesium Chloride containing 25% Ethylene Glycol at 50 μL/min. Data collection rate was performed at 10 Hz, and curves were reference-subtracted from a flow cell containing 100 RU of a negative control non-related protein (biotinylated mouse RNF43 PA domain). The maximum RU for each experiment was normalized to a value of 100% and plotted as a function of concentration using Prism 9 software (GraphPad). Steady-state binding and kinetic curves were fitted using the Biacore T200 evaluation software to a 1:1 Langmuir model to determine the KD values.

A further experiment has as its target T2, Notch3 (EGF5-12) (Homo sapiens, UniProt Q9UM47).
T2 construct: hNotch3 (EGF5-12, residues 197-505); gp67 signal peptide (N); made in house; host or cells: HiFive Trichoplusia ni insect cells (baculovirus)
T2 sequence (Q9UM47 197-505): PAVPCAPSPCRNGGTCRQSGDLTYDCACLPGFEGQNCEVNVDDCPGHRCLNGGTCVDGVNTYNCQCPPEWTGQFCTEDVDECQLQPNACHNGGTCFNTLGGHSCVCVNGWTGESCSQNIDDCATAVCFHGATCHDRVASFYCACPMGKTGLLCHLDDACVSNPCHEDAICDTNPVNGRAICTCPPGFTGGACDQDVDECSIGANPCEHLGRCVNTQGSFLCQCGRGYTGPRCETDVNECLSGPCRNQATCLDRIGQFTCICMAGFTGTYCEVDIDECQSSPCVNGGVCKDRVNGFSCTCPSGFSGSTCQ
Described as above. The format is binding. As for the experimental part:
as §1

A further experiment concerns the target T3, mouse Notch1 (EGF6-13) (Mus musculus, UniProt Q01705).
T3 construct: mouse Notch1 (EGF6-13, residues 221-526); gp67 signal peptide (N); made in house; host or cells: HiFive Trichoplusia ni insect cells (baculovirus)
T3 sequence (Q01705 221-526): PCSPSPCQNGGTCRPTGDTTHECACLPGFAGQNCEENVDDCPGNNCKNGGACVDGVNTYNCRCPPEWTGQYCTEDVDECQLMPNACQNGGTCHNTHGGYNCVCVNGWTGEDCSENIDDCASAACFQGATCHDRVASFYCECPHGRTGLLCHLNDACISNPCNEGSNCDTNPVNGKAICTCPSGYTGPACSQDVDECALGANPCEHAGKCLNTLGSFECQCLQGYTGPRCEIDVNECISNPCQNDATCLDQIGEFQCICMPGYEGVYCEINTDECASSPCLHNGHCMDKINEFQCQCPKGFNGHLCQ
Described as above. In kind it is binding. The following applies: mNotch1 EGF6-13; read-out: dissociation constant (KD). As for the experimental part: as §1

For experiment [1], the system named is Notch1. As to the kind of experiment: Notch activation with streptavidin-coated polystyrene beads (CHO-K1 N1-Gal4). In kind it is cell-based. The note with it: 25 μm beads, ratio 1:1 with reporter cells. As for the experimental part:
Biotinylated WT DLL4 or Delta^MAX (26 μg) were coated in 1.33 mg of streptavidin-coated polystyrene beads for 1 hour at 4° C. in DPBS+0.1% BSA. The beads were washed three times with 500 μL of DPBS+0.1% BSA before and after coating. DLL4 pre-coated beads were counted in the microscope and 100 μL containing 30,000 beads combined in ratio 1:1 with 100 μL of α-MEM with CHO-K1 N1-Gal4 reporter cell lines in 96-well tissue culture plates. The plate was incubated for 24 hours at 37° C., 5% CO2, and Notch activation measure by flow cytometry. The data represent Notch activation as a function of mean fluorescent intensity±s.d. of three biological replicates.
Target sequence in this assay (P46531 295-488 limits assumed): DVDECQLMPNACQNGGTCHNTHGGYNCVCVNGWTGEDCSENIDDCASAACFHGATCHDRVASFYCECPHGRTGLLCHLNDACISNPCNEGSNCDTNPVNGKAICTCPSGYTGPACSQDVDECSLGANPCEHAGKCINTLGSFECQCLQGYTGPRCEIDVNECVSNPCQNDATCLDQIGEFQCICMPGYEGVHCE

In experiment [2] the test system is Notch1. The experiment is described as follows: Notch inhibition, U2OS luciferase reporter on WT DLL4 coated plates. The format is cell-based, human. The note with it: plates coated with 50 nM WT DLL4, 10-fold dilutions from 3,000 nM. As for the experimental part: (§2) For U2OS cells, on day one, 5×10^5 cells were plated in 6-well tissue culture plates. On day two, U2OS cells were transfected as described above. On day three, 96-well plates (Coastar) were coated with streptavidin and biotinylated WT DLL4 at 50 nM as described above. Next, U2OS reporter cells were detached with trypsin-EDTA and diluted at 200,000 cells/mL in DMEM media. Ten-fold serial dilutions of soluble DLL4 variants starting at 6,000 nM were prepared in DPBS and used to pre-block reports cells following the same protocol described above. Two-hundred microliters of inhibition reactions were added to 96-well plates pre-coated with biotinylated WT DLL4 ligand at 50 nM, and assay plates incubated for 24 hours at 37° C. and 5% CO2. On day fourth, luciferase signals were measured with Dual-Glo luciferase assay system (Promega) using a GloMax luminometer (Promega). Doxycycline at 2 μg/mL was maintained to […]. A ratio between firefly and Renilla luciferase was calculated, and Notch activation normalized to wells where inhibitors were non-added. The data represent fold-change of Notch activation as percentage, relative to Notch activation in the absence of inhibitors±s.d. of three independent biological replicates.
Target sequence in this assay (P46531 19-1664 limits assumed): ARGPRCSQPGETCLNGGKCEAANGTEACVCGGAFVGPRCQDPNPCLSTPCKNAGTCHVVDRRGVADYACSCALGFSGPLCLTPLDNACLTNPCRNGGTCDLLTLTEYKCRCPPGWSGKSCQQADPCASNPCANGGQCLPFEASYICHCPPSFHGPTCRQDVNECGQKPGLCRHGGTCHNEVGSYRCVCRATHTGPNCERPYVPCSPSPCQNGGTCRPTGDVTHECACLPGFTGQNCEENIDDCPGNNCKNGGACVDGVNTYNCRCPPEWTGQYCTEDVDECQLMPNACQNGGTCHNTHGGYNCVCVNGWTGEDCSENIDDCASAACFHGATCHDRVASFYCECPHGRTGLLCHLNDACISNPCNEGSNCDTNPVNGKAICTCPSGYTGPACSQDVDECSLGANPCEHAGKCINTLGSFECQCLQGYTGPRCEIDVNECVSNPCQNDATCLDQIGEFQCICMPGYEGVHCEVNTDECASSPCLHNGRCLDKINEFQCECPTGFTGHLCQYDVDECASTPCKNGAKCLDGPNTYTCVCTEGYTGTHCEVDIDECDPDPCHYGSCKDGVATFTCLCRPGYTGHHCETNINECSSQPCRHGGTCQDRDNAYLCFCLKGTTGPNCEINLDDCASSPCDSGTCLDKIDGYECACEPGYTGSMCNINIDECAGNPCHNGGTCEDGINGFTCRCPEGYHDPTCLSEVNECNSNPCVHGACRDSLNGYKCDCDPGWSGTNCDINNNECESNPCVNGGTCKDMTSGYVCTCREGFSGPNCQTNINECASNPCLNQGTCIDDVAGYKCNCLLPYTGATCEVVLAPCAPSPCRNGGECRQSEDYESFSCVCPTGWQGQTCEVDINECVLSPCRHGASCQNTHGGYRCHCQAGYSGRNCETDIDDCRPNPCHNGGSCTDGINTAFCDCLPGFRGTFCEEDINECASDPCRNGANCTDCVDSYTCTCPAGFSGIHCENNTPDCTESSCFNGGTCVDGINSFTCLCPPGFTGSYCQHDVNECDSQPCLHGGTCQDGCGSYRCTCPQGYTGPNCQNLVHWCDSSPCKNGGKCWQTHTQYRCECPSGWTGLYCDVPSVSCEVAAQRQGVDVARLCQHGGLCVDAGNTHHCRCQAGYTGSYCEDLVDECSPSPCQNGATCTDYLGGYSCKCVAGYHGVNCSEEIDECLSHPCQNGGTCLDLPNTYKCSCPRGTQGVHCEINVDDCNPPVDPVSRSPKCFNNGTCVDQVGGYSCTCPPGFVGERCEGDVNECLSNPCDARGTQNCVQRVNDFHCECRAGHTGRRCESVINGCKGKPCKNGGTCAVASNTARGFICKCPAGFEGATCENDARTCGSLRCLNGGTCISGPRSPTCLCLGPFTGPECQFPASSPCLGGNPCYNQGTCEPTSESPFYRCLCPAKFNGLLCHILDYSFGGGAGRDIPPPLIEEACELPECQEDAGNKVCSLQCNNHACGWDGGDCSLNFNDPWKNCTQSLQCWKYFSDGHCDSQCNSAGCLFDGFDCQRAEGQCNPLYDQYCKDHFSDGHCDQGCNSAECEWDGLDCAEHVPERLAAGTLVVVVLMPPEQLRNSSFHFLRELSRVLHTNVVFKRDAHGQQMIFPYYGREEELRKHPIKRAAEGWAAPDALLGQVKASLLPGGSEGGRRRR
Target sequence in this assay (P46531 1665-1756 limits assumed): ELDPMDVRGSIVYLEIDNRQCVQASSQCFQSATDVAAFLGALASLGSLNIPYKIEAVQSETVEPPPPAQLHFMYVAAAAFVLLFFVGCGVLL
For orientation: A reporter such as luciferase makes a cellular process visible.

Another experiment deals with Notch2. The description is as above. In kind it is cell-based, human. The note with it: plates coated with 50 nM WT DLL4, 10-fold dilutions from 3,000 nM. As for the experimental part: as §2
The next experiment has as its system Notch3. Described as above. In kind it is cell-based, human. The note with it: plates coated with 50 nM WT DLL4, 10-fold dilutions from 3,000 nM. As for the experimental part:
as §2

The mark [3] stands for this setting: SPR, 25° C., ligand N-EGF5, read-out: dissociation constant (KD).

Notch2, sequence (Q04721 26-1677 limits assumed): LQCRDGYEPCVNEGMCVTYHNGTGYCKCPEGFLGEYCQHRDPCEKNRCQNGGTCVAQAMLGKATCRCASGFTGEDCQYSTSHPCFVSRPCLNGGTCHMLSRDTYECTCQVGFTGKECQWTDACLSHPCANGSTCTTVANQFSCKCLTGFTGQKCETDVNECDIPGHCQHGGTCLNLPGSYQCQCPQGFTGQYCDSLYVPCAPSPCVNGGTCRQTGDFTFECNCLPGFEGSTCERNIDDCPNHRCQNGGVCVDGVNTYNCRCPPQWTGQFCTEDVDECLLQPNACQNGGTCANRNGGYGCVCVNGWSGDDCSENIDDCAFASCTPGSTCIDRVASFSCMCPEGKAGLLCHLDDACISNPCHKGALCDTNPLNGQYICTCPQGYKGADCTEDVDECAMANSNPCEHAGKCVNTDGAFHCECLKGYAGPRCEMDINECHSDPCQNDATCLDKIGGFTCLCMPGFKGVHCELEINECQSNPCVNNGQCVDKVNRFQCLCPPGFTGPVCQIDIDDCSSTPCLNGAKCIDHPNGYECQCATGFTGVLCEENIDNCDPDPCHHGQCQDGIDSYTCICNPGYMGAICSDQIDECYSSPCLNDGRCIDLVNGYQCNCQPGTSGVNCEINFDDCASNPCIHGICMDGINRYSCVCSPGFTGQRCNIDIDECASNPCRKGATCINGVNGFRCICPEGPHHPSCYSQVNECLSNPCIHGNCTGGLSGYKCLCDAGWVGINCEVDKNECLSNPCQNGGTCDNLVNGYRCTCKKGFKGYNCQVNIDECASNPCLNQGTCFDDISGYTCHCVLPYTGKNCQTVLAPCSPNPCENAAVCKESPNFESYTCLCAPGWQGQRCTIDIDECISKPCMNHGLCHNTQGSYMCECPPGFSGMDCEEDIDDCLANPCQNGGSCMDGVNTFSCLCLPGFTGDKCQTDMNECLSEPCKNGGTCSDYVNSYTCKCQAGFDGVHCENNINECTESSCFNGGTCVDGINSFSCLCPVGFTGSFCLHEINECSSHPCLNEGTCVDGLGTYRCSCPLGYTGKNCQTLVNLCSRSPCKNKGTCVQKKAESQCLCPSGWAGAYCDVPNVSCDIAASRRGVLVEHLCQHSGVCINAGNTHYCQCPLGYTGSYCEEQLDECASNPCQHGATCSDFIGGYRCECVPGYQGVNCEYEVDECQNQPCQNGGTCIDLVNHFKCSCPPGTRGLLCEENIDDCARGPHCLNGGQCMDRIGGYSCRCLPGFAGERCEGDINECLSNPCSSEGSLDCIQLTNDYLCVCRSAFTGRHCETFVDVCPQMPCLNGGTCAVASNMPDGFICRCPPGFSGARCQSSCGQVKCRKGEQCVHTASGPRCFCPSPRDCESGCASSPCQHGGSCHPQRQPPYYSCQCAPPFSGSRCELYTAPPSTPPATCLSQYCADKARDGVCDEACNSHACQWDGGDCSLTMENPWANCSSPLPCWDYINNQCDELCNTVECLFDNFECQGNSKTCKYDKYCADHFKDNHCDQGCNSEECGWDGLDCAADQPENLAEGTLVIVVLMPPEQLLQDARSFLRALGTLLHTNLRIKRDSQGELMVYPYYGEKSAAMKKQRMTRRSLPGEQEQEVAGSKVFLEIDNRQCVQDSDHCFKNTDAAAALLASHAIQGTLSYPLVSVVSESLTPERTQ

B1: Delta^MAX: engineered human DLL4 consensus variant with 10 mutations combining DLL4.v1 and DLL4.v2 mutations; sequence matches SEQ ID NO: 4/10 (protein)
chain: SSVFQLQLQEFINERGVLASGRPCEPGCRTFFRVCLKHFQAVVSPGPCTFGTVSTPVLGTNSFAVRDDSSGGGRNPLQLPLNFTWPGTFSLIIEAWHAPGDDLRPEALPPDALISKFAIQGSLAVGQNWLLDEQTSTLTRLRYSYRVICSDNYYGDNCSRLCKKRNDYFGHYVCQPDGNPSCLPGWTGEYCQQPICLSGCHEQNGYCSKPAECLCRPGWQGRLCNECIPHPGCRHGTCSTPWQCLCDEGWGGLYCDQDLNYCTHHSPCKNGATCRNSGPRSYTCTCRPGYTGVDCELELSECDSNPCRNGGSCKDQEDGYHCLCPPGYYGLHCEHSTLSCADSPCFNGGSCRERNQGANYACECPPNFTGSNCE
As a reminder, the Kd is the free concentration of one partner at which half of the binding sites on the other are occupied at equilibrium, for simple one-to-one binding. For B1, the figures for the “enhancement of affinity compared to WT DLL4” value with Notch2 (EGF6-13) (Notch2) and in the experiment with Notch3 (EGF5-12) (Notch3) were 670 fold and 591 fold, respectively. Also, the dissociation constant (Kd) came to 54 nM with Notch2 (EGF6-13) (setting [3]), 49 nM with Notch3 (EGF5-12) (setting [3]) and 25 nM with mouse Notch1 (EGF6-13). Moreover, the “reporter activity vs DLL4 microbeads” value in the experiment on Notch1 [1] is listed as 4.5 fold. In addition, the “effect of soluble competitor on Notch1 signaling” value with Notch1 [2] was “dose-dependent decreases”. Besides, the “effect of soluble competitor on Notch2 signaling” value in the experiment with Notch2 is “dose-dependent decreases”. Also, in the experiment on Notch3, the “effect of soluble competitor on Notch3 signaling” value is “dose-dependent decreases”.
